For 13 molecules, Kd, koff and kon results are on record in patent US20260109761A1 (IP2IPO INNOVATIONS, published 2026).

Sequences and labels used below:
B1: 51B12_VH_L1 (antibody, V domains shown)
VH: QVQLVESGGGVVQPGRSLRLSCAASGFTFSDYGMHWVRQAPGKGLEWVAYISSGGTTIYYADTVKGRFTISRDNSKNTLYLQMNSLRAEDTAVYYCARWTNLYAMDYWGQGTTVTVSS
VL: DIVLTQSPDSLAVSLGERATINCRASKSVSTQGYSYMHWYQQKPGQPPKFLIYLASNLESGVPDRFSGSGSGTDFTLTISSLQAEDVAVYYCQHSREVPYTFGGGTKVEIKR
notes: Fc null human IgG1 / human kappa
B2: H3_M105P_L1 (antibody, V domains shown)
VH: QVQLVESGGGVVQPGRSLRLSCAASGFTFSDYGMHWVRQAPGKGLEWVAYISSGGTTIYYADTVKGRFTISRDNSKNTLYLQMNSLRAEDTAVYYCARWTNLYAPDYWGQGTTVTVSS
VL: DIVLTQSPDSLAVSLGERATINCRASKSVSTQGYSYMHWYQQKPGQPPKFLIYLASNLESGVPDRFSGSGSGTDFTLTISSLQAEDVAVYYCQHSREVPYTFGGGTKVEIKR
notes: as for B1
B3: H2_G66Q_L1 (antibody, V domains shown)
VH: QVQLVESGGGVVQPGRSLRLSCAASGFTFSDYGMHWVRQAPGKGLEWVAYISSGGTTIYYADTVKQRFTISRDNSKNTLYLQMNSLRAEDTAVYYCARWTNLYAMDYWGQGTTVTVSS
VL: DIVLTQSPDSLAVSLGERATINCRASKSVSTQGYSYMHWYQQKPGQPPKFLIYLASNLESGVPDRFSGSGSGTDFTLTISSLQAEDVAVYYCQHSREVPYTFGGGTKVEIKR
notes: as for B1
B4: H2_T63Y_L2 (antibody, V domains shown)
VH: QVQLVESGGGVVQPGRSLRLSCAASGFTFSDYGMHWVRQAPGKGLEWVAYISSGGTTIYYADYVKGRFTISRDNSKNTLYLQMNSLRAEDTAVYYCARWTNLYAMDYWGQGTTVTVSS
VL: DIVLTQSPDSLAVSLGERATINCRASKSVSTSGYSYMHWYQQKPGQPPKFLIYLASNKESGVPDRFSGSGSGTDFTLTISSLQAEDVAVYYCQHSREVPYTFGGGTKVEIKR
notes: as for B1
B5: H2_K65P_L1 (antibody, V domains shown)
VH: QVQLVESGGGVVQPGRSLRLSCAASGFTFSDYGMHWVRQAPGKGLEWVAYISSGGTTIYYADTVPGRFTISRDNSKNTLYLQMNSLRAEDTAVYYCARWTNLYAMDYWGQGTTVTVSS
VL: DIVLTQSPDSLAVSLGERATINCRASKSVSTQGYSYMHWYQQKPGQPPKFLIYLASNLESGVPDRFSGSGSGTDFTLTISSLQAEDVAVYYCQHSREVPYTFGGGTKVEIKR
notes: as for B1
B6: H2_T57H_L2 (antibody, V domains shown)
VH: QVQLVESGGGVVQPGRSLRLSCAASGFTFSDYGMHWVRQAPGKGLEWVAYISSGGTHIYYADTVKGRFTISRDNSKNTLYLQMNSLRAEDTAVYYCARWTNLYAMDYWGQGTTVTVSS
VL: DIVLTQSPDSLAVSLGERATINCRASKSVSTSGYSYMHWYQQKPGQPPKFLIYLASNKESGVPDRFSGSGSGTDFTLTISSLQAEDVAVYYCQHSREVPYTFGGGTKVEIKR
notes: as for B1
B7: 51B12_VH_L2 (antibody, V domains shown)
VH: QVQLVESGGGVVQPGRSLRLSCAASGFTFSDYGMHWVRQAPGKGLEWVAYISSGGTTIYYADTVKGRFTISRDNSKNTLYLQMNSLRAEDTAVYYCARWTNLYAMDYWGQGTTVTVSS
VL: DIVLTQSPDSLAVSLGERATINCRASKSVSTSGYSYMHWYQQKPGQPPKFLIYLASNKESGVPDRFSGSGSGTDFTLTISSLQAEDVAVYYCQHSREVPYTFGGGTKVEIKR
notes: as for B1
B8: H2_K65P_VL-par (antibody, V domains shown)
VH: QVQLVESGGGVVQPGRSLRLSCAASGFTFSDYGMHWVRQAPGKGLEWVAYISSGGTTIYYADTVPGRFTISRDNSKNTLYLQMNSLRAEDTAVYYCARWTNLYAMDYWGQGTTVTVSS
VL: DIVLTQSPDSLAVSLGERATINCRASKSVSTSGYSYMHWYQQKPGQPPKFLIYLASNLESGVPDRFSGSGSGTDFTLTISSLQAEDVAVYYCQHSREVPYTFGGGTKVEIKR
notes: as for B1
B9: H2_K65P_L2 (antibody, V domains shown)
VH: QVQLVESGGGVVQPGRSLRLSCAASGFTFSDYGMHWVRQAPGKGLEWVAYISSGGTTIYYADTVPGRFTISRDNSKNTLYLQMNSLRAEDTAVYYCARWTNLYAMDYWGQGTTVTVSS
VL: DIVLTQSPDSLAVSLGERATINCRASKSVSTSGYSYMHWYQQKPGQPPKFLIYLASNKESGVPDRFSGSGSGTDFTLTISSLQAEDVAVYYCQHSREVPYTFGGGTKVEIKR
notes: as for B1
B10: H3_M105P_L2 (antibody, V domains shown)
VH: QVQLVESGGGVVQPGRSLRLSCAASGFTFSDYGMHWVRQAPGKGLEWVAYISSGGTTIYYADTVKGRFTISRDNSKNTLYLQMNSLRAEDTAVYYCARWTNLYAPDYWGQGTTVTVSS
VL: DIVLTQSPDSLAVSLGERATINCRASKSVSTSGYSYMHWYQQKPGQPPKFLIYLASNKESGVPDRFSGSGSGTDFTLTISSLQAEDVAVYYCQHSREVPYTFGGGTKVEIKR
notes: as for B1
B11: H2_T56H_L1 (antibody, V domains shown)
VH: QVQLVESGGGVVQPGRSLRLSCAASGFTFSDYGMHWVRQAPGKGLEWVAYISSGGHTIYYADTVKGRFTISRDNSKNTLYLQMNSLRAEDTAVYYCARWTNLYAMDYWGQGTTVTVSS
VL: DIVLTQSPDSLAVSLGERATINCRASKSVSTQGYSYMHWYQQKPGQPPKFLIYLASNLESGVPDRFSGSGSGTDFTLTISSLQAEDVAVYYCQHSREVPYTFGGGTKVEIKR
notes: as for B1
B12: H2_Y60K_L2 (antibody, V domains shown)
VH: QVQLVESGGGVVQPGRSLRLSCAASGFTFSDYGMHWVRQAPGKGLEWVAYISSGGTTIYKADTVKGRFTISRDNSKNTLYLQMNSLRAEDTAVYYCARWTNLYAMDYWGQGTTVTVSS
VL: DIVLTQSPDSLAVSLGERATINCRASKSVSTSGYSYMHWYQQKPGQPPKFLIYLASNKESGVPDRFSGSGSGTDFTLTISSLQAEDVAVYYCQHSREVPYTFGGGTKVEIKR
notes: as for B1
B13: H2_T56H_L2 (antibody, V domains shown)
VH: QVQLVESGGGVVQPGRSLRLSCAASGFTFSDYGMHWVRQAPGKGLEWVAYISSGGHTIYYADTVKGRFTISRDNSKNTLYLQMNSLRAEDTAVYYCARWTNLYAMDYWGQGTTVTVSS
VL: DIVLTQSPDSLAVSLGERATINCRASKSVSTSGYSYMHWYQQKPGQPPKFLIYLASNKESGVPDRFSGSGSGTDFTLTISSLQAEDVAVYYCQHSREVPYTFGGGTKVEIKR
notes: as for B1

In the experiment the target is T1, huZIP12-ECD-GST (human, UniProt Q504Y0 24-202).
T1 construct: also called hZIP12-ECD-GST; human ZIP12-ECD-GST; not shown: glutathione S-transferase (GST) tag
T1 sequence (Q504Y0 24-202): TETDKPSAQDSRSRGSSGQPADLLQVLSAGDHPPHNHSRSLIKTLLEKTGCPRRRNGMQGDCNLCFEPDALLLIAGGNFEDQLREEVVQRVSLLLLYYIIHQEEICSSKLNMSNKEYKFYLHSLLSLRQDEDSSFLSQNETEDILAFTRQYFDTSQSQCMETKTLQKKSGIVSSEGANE
Put plainly: SPR single cycle kinetics (Biacore): mAb captured on protein A, huZIP12-ECD-GST injected at 3.12-800 nM. The procedure: Single Cycle Kinetics (SCK) involves first capturing the mAb onto the protein A sensor surface and then sequentially injecting a series of concentrations of huZIP12-ECD-GST over the surface starting at the lowest concentration and ending with the highest concentration. The final concentration is followed by a dissociation phase where buffer only is passed across the surface followed by regeneration, where the remaining bound huZIP12-ECD-GST is removed from the surface by injection of a 10 mM Glycine pH 1.5 and 50 mM NaOH solution. The SCK is repeated for each monoclonal antibody providing duplicate data and the kinetics of each interaction is evaluated by the Biacore software.
Referring to FIG. 6, there are shown the kinetic parameters obtained for all antibody variants when screened with the 3.12 nM to 800 nM huZIP12-ECD-GST. […] Affinity.
In general terms: Surface plasmon resonance follows binding to a sensor surface in real time, without labels.
For orientation: Kd means the constant that tells how readily two partners part at equilibrium. Usually koff stands for the rate constant with which the complex falls apart. What is called kon is the second-order rate constant of association. Read a high kon as fast association. Consider B1, for which the Kd was found to be 0.963 nM, the koff worked out at 2.83e-05 s⁻¹ and the kon turned out to be 29300 M⁻¹ s⁻¹.
For B2, in that order: 1.55 nM, 4.35e-05 s⁻¹ and 28100 M⁻¹ s⁻¹.
With B3, the Kd worked out at 0.968 nM, the koff is 3.34e-05 s⁻¹ and the kon came out at 34600 M⁻¹ s⁻¹.
In the same order, the values of B4 are 1.15 nM, 3.06e-05 s⁻¹ and 26700 M⁻¹ s⁻¹.
For the molecule B5, the Kd is 1.07 nM, the koff came to 3.08e-05 s⁻¹ and the on-rate (kon) stood at 28800 M⁻¹ s⁻¹.
In the same order, the values of B6 are 0.98 nM, 3.78e-05 s⁻¹ and 38600 M⁻¹ s⁻¹.
In the case of B7, the Kd was determined as 1.12 nM, the koff was determined as 2.86e-05 s⁻¹ and the kon came out at 25600 M⁻¹ s⁻¹.
In the same order, the values of B8 are 1.08 nM, 2.92e-05 s⁻¹ and 27000 M⁻¹ s⁻¹.
In turn, B9 gave a Kd of 1.13 nM, a koff of 2.62e-05 s⁻¹ and a kon of 23200 M⁻¹ s⁻¹.
In the same order, the values of B10 are 1.93 nM, 4.14e-05 s⁻¹ and 21500 M⁻¹ s⁻¹.
For B11, in that order: 1.3 nM, 3.45e-05 s⁻¹ and 26400 M⁻¹ s⁻¹.
In the case of B12, the Kd is 1.11 nM, the koff was found to be 4.04e-05 s⁻¹ and the on-rate constant (kon) is 36500 M⁻¹ s⁻¹.
In the same order, the values of B13 are 1.61 nM, 3.74e-05 s⁻¹ and 23200 M⁻¹ s⁻¹.
